Source: the array DNA melting data of Ke et al.

Assay: melting temperature; melt of duplexes
Conditions: sodium 0.0675 M; strand 1 µM

Substance | Tm [°C]
CGACGTGCATAATGTGCTG+CAGCACATTTCGCACGTCG ((((((((..(((((((((+)))))))))..)))))))) | 51
CGACGTGCTGAATGTGCTG+CAGCACATGATGCACGTCG ((((((((...((((((((+))))))))...)))))))) | 55.2
CGACGTGCCGAATGTGCTG+CAGCACATTCAGCACGTCG ((((((((.((((((((((+)))))))))).)))))))) | 57
CGACGTGCGGTATGTGCTG+CAGCACATACAGCACGTCG ((((((((.((((((((((+)))))))))).)))))))) | 59.5
CGACGTGCGACATGTGCTG+CAGCACATTTTGCACGTCG ((((((((.(.((((((((+)))))))).).)))))))) | 51.4
CGACGTGCTAAATGTGCTG+CAGCACATTTCGCACGTCG ((((((((.((((((((((+)))))))))).)))))))) | 55.3
CGACGTGCACTATGTGCTG+CAGCACATGCGGCACGTCG ((((((((...((((((((+))))))))...)))))))) | 43.3
CGACGTGCAAGATGTGCTG+CAGCACATGGAGCACGTCG ((((((((...((((((((+))))))))...)))))))) | 51.6
CGACGTGCTCCATGTGCTG+CAGCACATGCTGCACGTCG ((((((((..(((((((((+)))))))))..)))))))) | 50.8
CGACGTGCGTTATGTGCTG+CAGCACATGGCGCACGTCG (((((((((..((((((((+))))))))..))))))))) | 57.5
CGACGTGCGTAATGTGCTG+CAGCACATGACGCACGTCG ((((((((((.((((((((+)))))))).)))))))))) | 58
CGACGTGCTAGATGTGCTG+CAGCACATAGGGCACGTCG ((((((((...((((((((+))))))))...)))))))) | 51.5
CGACGTGCATTATGTGCTG+CAGCACATCATGCACGTCG ((((((((((.((((((((+)))))))).)))))))))) | 54.1
CGACGTGCAGCATGTGCTG+CAGCACATATAGCACGTCG ((((((((...((((((((+))))))))...)))))))) | 46.3
CGACGTGCTCCATGTGCTG+CAGCACATATAGCACGTCG (((((((((..((((((((+))))))))..))))))))) | 50.4
CGACGTGCTATATGTGCTG+CAGCACATGATGCACGTCG ((((((((...((((((((+))))))))...)))))))) | 51.9
CGACGTGCAACATGTGCTG+CAGCACATACAGCACGTCG ((((((((...((((((((+))))))))...)))))))) | 47.9
CGACGTGCTCGATGTGCTG+CAGCACATCCCGCACGTCG ((((((((..(((((((((+)))))))))..)))))))) | 52.1

Substance | Tm [°C]
CGACGTGCTACATGTGCTG+CAGCACATGACGCACGTCG ((((((((..(((((((((+)))))))))..)))))))) | 50.8
CGACGTGCCAAATGTGCTG+CAGCACATCCTGCACGTCG ((((((((...((((((((+))))))))...)))))))) | 48.5
CGACGTGCGATATGTGCTG+CAGCACATCGAGCACGTCG ((((((((...((((((((+))))))))...)))))))) | 53.6
CGACGTGCCGCATGTGCTG+CAGCACATCCGGCACGTCG ((((((((((.((((((((+)))))))).)))))))))) | 58.2
CGACGTGCTTTATGTGCTG+CAGCACATAGAGCACGTCG (((((((((.(((((((((+))))))))).))))))))) | 55.2
CGACGTGCCCTATGTGCTG+CAGCACATAACGCACGTCG ((((((((..(((((((((+)))))))))..)))))))) | 48.7
CGACGTGCAATATGTGCTG+CAGCACATAGAGCACGTCG ((((((((..(((((((((+)))))))))..)))))))) | 52.7
CGACGTGCACAATGTGCTG+CAGCACATTAGGCACGTCG ((((((((..(((((((((+)))))))))..)))))))) | 50.6
CGACGTGCTGCATGTGCTG+CAGCACATCCCGCACGTCG ((((((((.(.((((((((+)))))))).).)))))))) | 49.9
CGACGTGCTAAATGTGCTG+CAGCACATAAAGCACGTCG (((((((((..((((((((+))))))))..))))))))) | 53.1
CGACGTGCTGCATGTGCTG+CAGCACATTCTGCACGTCG ((((((((.(.((((((((+)))))))).).)))))))) | 51.8
CGACGTGCAGTATGTGCTG+CAGCACATAAAGCACGTCG ((((((((..(((((((((+)))))))))..)))))))) | 51.7
CGACGTGCGTTATGTGCTG+CAGCACATATGGCACGTCG ((((((((..(((((((((+)))))))))..)))))))) | 51.1
CGACGTGCGTCATGTGCTG+CAGCACATATGGCACGTCG ((((((((...((((((((+))))))))...)))))))) | 49.8
CGACGTGCAAAATGTGCTG+CAGCACATGCGGCACGTCG ((((((((...((((((((+))))))))...)))))))) | 51.2
CGACGTGCGGCATGTGCTG+CAGCACATTTCGCACGTCG (((((((((..((((((((+))))))))..))))))))) | 53.4
CGACGTGCTGTATGTGCTG+CAGCACATCGGGCACGTCG ((((((((...((((((((+))))))))...)))))))) | 50.6
CGACGTGCCTTATGTGCTG+CAGCACATAGAGCACGTCG ((((((((..(((((((((+)))))))))..)))))))) | 51.8
